Measured values: patent publication US20090252749A1
“And” between values parts separate entries of the source, which are not always exact repeats. Equal values may be shown once.

Target: B7 protein on the antigen presenting cell (Daudi B cells)
Experiment: cell-based or functional assay

EC50 (ng/mL), human IL-2 promoter mediated luciferase activity: 19.1 ng/mL and 21.5 ng/mL and 21.8 ng/mL
Lower Asymptote (CPS), human IL-2 promoter mediated luciferase activity: 27000 CPS and 30000 CPS and 29000 CPS
Upper Asymptote (CPS), human IL-2 promoter mediated luciferase activity: 81000 CPS and 85000 CPS and 88000 CPS
Substance: CTLA4^A29YL104E-Ig (Fc fusion)
